experiment: yeast display, Sf9 membrane polyspecificity reagent, FACS + sequencing; frameworks hold sequencing errors
In short: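 A nanobody's polyreactivity label depends on the gate it was sorted from. Yeast display cells were stained with 10% biotinylated, detergent-solubilized Sf9 membrane reagent for 1 hour at 4 °C, enriched on streptavidin microbeads and sorted by FACS. The low and high (top ~1%) gates were set on anti-HA fluorescence for expression and streptavidin fluorescence for reagent binding.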

Sequence | polyreactivity (PSR sort gate)
QDQLVESGGGLVQEGGSLRLICGASGFIFPTNAMGWYRPAPGKERELVAAISRSGGTTNYADSVKGRFTISRDNAKNTVYLQRNSLKPEDTAVYYCNRGWATWHGPDDYWGQGTQVTVSS | high polyreactivity
QVQLVESGGGLVQAGGSLRLSCAASGFTFYGYTMGWYRQAPGKERELVAAINKSGSSTYYADSEKGRFTISRDNAKNTVYLQMNSLKPEDTAVYYCNAYYRKVLGYDKMDYWGQGTQVTVSS | high polyreactivity
QVQLVESGGGLVQAGGSLRLSCAASGRIIGYYAMGWYRQAPGKERELVATINYSGGRTYYADSVKGRFTISRDNAKNTVYLQMNSLKPEDTAVYYCNARESGRGSHDDYWGHGTQVTVSS | high polyreactivity
QVQLVESGGGLVQAGGSLRLSCAASGTFYYNTMGCYRQAPGKERELVAAITSGGRTYADSVKGRFTISRDNAKNTVYLQMNSLKEEDTAVYYCAVDKPYPYRIIIWYEYDYWGQGNQVTVSS | low polyreactivity
QVQLVESGGGLVQAGGSLRLSCAASGRTFWFYGMGWYRQAPGKERELVADITSGGGTYYADSVKGRFTISRDNAKNTVYLQMNSLKPEDTAVYYCNAYKTHVVPATYDSEEYWGQGTQVTVSS | low polyreactivity
HVQLVESGGGLVHAGGSLRLSCAASGSILPKYAMGWYRQEPGKQRLLVATITWSGSSTYYADSVKGRFTISRDNAQNTVYLQMNSLKPEDTAVYYCAATGWSSFYYRFEYWGQGTQVTVSS | low polyreactivity
QVQLVESGGGLVQAGGSLRLSCAASGSIFITYAMGWYRQAPGKERELVAAITDSGDSTYYADSVKGRFTISRDNAKNTVYLQMISLKPEDTAVYYCAKRYYGSYSHFIRTDGYWGQGTQVTVSS | low polyreactivity
QVQLVESGGGLVQAGGSLRLSCAASGFIFRRYAMGWYRQAPGKERELVAAITAGGGNTYYADSVKGRFTISRDNAKNTVYLQMHSLKPEDTAVYYCAAAGRWYYHGYNYWGQGTQVTVSS | high polyreactivity
QVHLVDSGGGLVQAGGSLGLNCAASGRTLRYNAMGWYRQATGIERELVAAINWNGGSTYYADSVKGRFTISRETAMYTVYLQMNRLKPEDTAVYFCNDDFYHRYDWGQGTQVTVSS | high polyreactivity
QVQLVESGGGLVQAGGSLRLSCAASGLTFEYYTMGWYRQAPGIERELVAAITSSGGSTYYADSVKGRFTISRDNAKNTVYLQMISLKPEDTAVYYCNAYWTYEFPSYEYWGQGTQVTVSS | low polyreactivity
QVQLVESGGGLVQAGGSLRLSCAASGFTFPPYAMGWYIQAPGKERELVAGISWIGSSTYYADSVKGRFTISRDNAKNTVYLQMNSLKPEDTAVYYCNARYLLFAGGRRYYWGQGTQVTVSS | high polyreactivity
QVQLVESGGGLVQAGGSLRLSCAASGFTFRAYTMGWYRQAPGKERELVAAITYSGGRTYYADSVKGRFTISRDNAKNTVYLQMNSLKPEDTAVYYCAKRGWALSEYYYWGQGTQVTVSS | high polyreactivity
QVQLVESGGGLVQAGGSLRLSCAASGSTLKSNVMGWYRQAPGKERELVAAISSSGGSTSYADSVKGRFTISRDNAKNTVYLLMKSLNPEDTAVYYCAARMGRYFWNSGVDYWGQGTQVTVSS | high polyreactivity
QVQLVESGGGLDQAGGSLRLSCAASGSIFDSNALGWYRQAPGKERELVASITSSGGSTYYADSVKGRFTISRDKAKNTVYLQMNSLKPEDTAVYYCAADSYKTKHDAYDYCGQGTQVTVSS | high polyreactivity
QVQLVESGGGLVQAGGSLRLSCAASGIIFPGNVMGWYRQAPGKERELVAGISSSGSRTYYADSVKGRFTISRDNAKNTVYLQMNSLKPEDTAVYYCAAEHQRSRGRRYYIGYDYWGQGTQVTVSS | low polyreactivity
QVQLVESGGGLVQAGGSLRLSCAASGGTFTYYTKGWYRQAPGKERELVAAISTGGRTYYADSVKGRFTISRDNAKNTVYLQMNSLKPEDTAVYYCNADYDETDVLGEFDYWGQGTQVTVSS | low polyreactivity
QVQLVESGGRLVQAGGSLRLSCAASGYTIDPYDMGWYRQAPGKERELVASISWSGGDTYYADSVKGRFTISRDNAKNTVYLQMNSLKPEDTAVYYCAADPGYPANRTEWSDFDYWGQGTQVTVSS | low polyreactivity
QVQLVESGGGLVQAGGSLRLSCAASGRPFNRNAMGWYRTAPGKERELVASITSRGGSTYYADSVKGRFTISRDNAKNTVYLQMNSLKTEDTAVYYCAGYTRNGDYDYWGQGTQVTFSS | high polyreactivity
QVHLVESGGGLVQAGGSLRLSCAASGNTFQRYTMGWYRQAPGKERELVAAITWSGGNTYYADSVKGRFTISRDNEKNTVYLQMNSLKPEDTAVYYCNADYPTTAYDYWGQGTQVTVSS | low polyreactivity
QVQLVESGGGLVQAGGSLRLSCAASGSTFPSYAMGWYRQAPGKERELVAAINSGGGTNYADSVKGRFTISRDNAKNTVYLQMNSLKPEDTAVYYCAKSRYDYNKTEGGYWGQGTQVTVSS | low polyreactivity
QVQLVESGGGIVQPGGRLRLSCAASGSILYGYAMGWYRQAPGKERELVAVITSGGSTNYADTVKGRFTISRDNAKNTVYLQMNSLKPEDTAVYYCAADPYSVYGGDYWGQGTQVTVSS | low polyreactivity
QVQLVESAGGLVQAGGSLRLSCAPSGFIFKHNAMGWYRQAPGKERECVAAISWSGDSTYYADSVKGRFTISRDNAKNTVYLQMNSLKPEDTAVYYCAAVRALRKVRDYYYWGQGTQVTVSS | high polyreactivity

Sequence | polyreactivity (PSR sort gate)
QVQLVESGGGLVQAGGSLRLSCAASGRIFGDYAMGWYRQAPGKERELVADITWSGGSTYYADSVKGRVTISRDNAKHTVYLQMNSLKPEDTAVYYCNADVWFYYTFDYWGQGTQVTVSS | low polyreactivity
QVQLVESGGGLVQAGGSLRLSCAASGFILEDYTMGWYRQAPGKERELVAAISSGGTRTYYADSVKGRFTISRDNAKNTVYLQMNSLKPEDTAVYYCTTRRGERGYWGQGTQVTVSS | high polyreactivity
QVQVVESRGGLVQAGGSLRLSCAASGLIFLGYAMGWYRQAPGKERELVASIRTGGSTSYADSVKGRFTISRDNENNRVYLQMNSLKPEDTAVYYCAADRGRPNLPGDYWGQGSQVTVSS | low polyreactivity
QVQLGESGGGLVQAGGSLRLSCAASGFTFDFYAMGWYRPAPGKEWELVAAINWSGSSTYYADSVKGRFTISRDNAKNTDYLQMNSLKPEDTAVYYCAAQVYYTLFPDVYTMYYWGQGTQETVSS | high polyreactivity
QVQLVESGGGLDQAGGSLRLSCAASGSTFVGYAMGWYRQAPGKERELVAAISYSGGRTYYADSVKGRFTISRDNAKNTVYLQMNSLKPEDTAVYYCAALVGGSGWWGRDYWGQGTQVTVSS | high polyreactivity
QVQLEESGGGLVQAGGSLRLSCAASGSIIYAYAMGWSRQAPGKERELVDGIRDGGSTYYADSVKWRFTISRDNAKNTVYLQMNSLKPADTAVYYCAAGPRIRDDYWGQGTQVTVSS | low polyreactivity
QVQLVESGGGLVQAGGSLRLSCAASGRTFRRYFMGWYRQAPGKERELVAAISGGGGSTYYAGSVKGRFTISRDNAKNTVYLQMNSLKPEDTAVYYCAARIGWYQYWGYPTSYGYWGQGTQVTVSS | high polyreactivity
QVQLVESGGGLVQAGGSLRLSCAASGRIFLRNAMGWYRQAPGKERELVATITSRGGSTYYADSVRGRFTISRDNAKNTVYLQMNSLKPEDTAVYYCAAKVAWGHWRGYDYWGQGTQVTVSS | low polyreactivity
QLQLVESGGGLVQAGGSLRLSCAASGRTFDDYAMGWYRQAPGKERELVAAISGSAGSTYYADSVKGRFTISRDNAKNTVYLQMNSLKPEDTAVYYCARGYGTYPLYYQYLAYYYWGQGTQVTVSS | low polyreactivity
QVQLVESGGGLVQAGGSLRLSCAASGFIFEAYTMGWSRQAPGKERELVASIDWDGGSTYYADSVKGRFTISRDNAKNTVYLQMNSLKPEDTAVYYCAADSRQYDELGDYDYWGQGTQVTVSS | low polyreactivity
QVQLVESGGGLVQAGGSLRLSCAASGITFPANARGWYRQAPGKERELVADISESDGSTYYADSVKGRFTISRDNAKNTVFLQMNSLKPEDTAVYYCAADGTSGTRSDYWGQCTQVTVSS | low polyreactivity
QVQLVESGGGLVQAGGSLRLSCAASVSTVSYNAMGWYRQAPGKERELVAAISGSGGTTYYADSVKGRFTISRDNAKNTVYLQMNSLKPEDTAVYYCAARPFRSWRYDYWGQGTQVTVSS | low polyreactivity
QVQLVESAGGLVQAGGSLLLSCAASGSTFGTYAMGWYRQAPGKERELVAAISTGGSTYYADSVKGRFTISRDNAKNTVYLQMNSLKPEDTAVYYCAALAEYVRRASDYWGQGTQVTVSS | low polyreactivity
QVQLVESGGGLVKAGGSLRLSCAASGIIMSYYVMGWYIQAPGKERELVAAISLRGGTTYYADSEKGRFTISRDNAKNTVYLQKNSLKPEDTAVYYCAAQRPGFGYEYDYWGQGTQVTVSS | high polyreactivity
QVQLVESAGGLVQARVSLRLSSAASGRTIPTYTMGWYRQAPGKERELVAAITRGGSTKYADSVKGRFTISRDNAKNTVYLQMNSLKPEDTAVYYCAAVYRYRHSFAYYRHEMDYWGLGTQVTVSS | low polyreactivity
QVQLVESGGGLVQAGGSLRLSCAASGRIFLLNAMGWYRQAPGKERELVARISSGRTYYADSVKGRFTISRDNAKNTVFLQMISLKPEDTAVYYCNATVSSSKFRYFYVNPYDYWGQGTQVTVSS | low polyreactivity
QVQLVESGGGLDQAGGSLRLSCAASGFIFYQNAMGWYKQAPGKERELFAAISTTGSRTYYADSVKGRFTISRDNPKNTVYLQMNRLKPVDTAVYYCATPLQQEGDWGQGTQVTVSS | high polyreactivity
QVQLVESRGGLVQAGGSLRLSCAASGYAMGWYRQAPGKERELVAAITSGGSTNYADSVKGRFTISRDNAKNTVYLQMNSLKPVDTAVYYCAAAYSLYGHRYDYWGQGTQVTVSS | high polyreactivity
QVQLVESGGGLVQAGGSLRLSCAASGSIFRLYAMGWYRQAPGKEREFVARIRWRGGCTNYADSVKGRITISRDNAKNTVYLQMNTLKPEDTAVYYCAVKGAGGPKYDYWGHGTQVTVSS | high polyreactivity
QVQLVESGGGLVQAGGSLRLSCAASGSIFSQYAMGWYRQAPGKERELVAAISRSGGTTYYADSVKGRFTISRDNAKNTVYLQMNSLKPEDTAVYYCAADLKARRGSYDRFYYWGQGTQVTVSS | high polyreactivity
QVQLVESGGGLVQAGGSLRLSCAASGGMGWYRQAPGKERELVATISSVGSTNYADSVKGRFTISRDNAKNTVYLQMNSLKPEDTAVYYCAADYGSDYTKGDYWGQGTQVTVSS | low polyreactivity
